Literature values as cited in US20050181485A1, “Cellulose digesting enzyme gene and utilization of the gene” (priority 2002, published 2005).
Where two headings read alike, the source gives them in different places.

Settings: known cellobiose dehydrogenases

B1: Phanerochaete chrysosporium: known cellobiose dehydrogenase reported by Henriksson et al. (protein, UniProt Q01738 19-773, looked up)
Cellobiose dehydrogenase: QSASQFTDPTTGFQFTGITDPVHDVTYGFVFPPLATSGAQSTEFIGEVVAPIASKWIGIALGGAMNNDLLLVAWANGNQIVSSTRWATGYVQPTAYTGTATLTTLPETTINSTHWKWVFRCQGCTEWNNGGGIDVTSQGVLAWAFSNVAVDDPSDPQSTFSEHTDFGFFGIDYSTAHSANYQNYLNGDSGNPTTTSTKPTSTSSSVTTGPTVSATPYDYIIVGAGPGGIIAADRLSEAGKKVLLLERGGPSTKQTGGTYVAPWATSSGLTKFDIPGLFESLFTDSNPFWWCKDITVFAGCLVGGGTSVNGALYWYPNDGDFSSSVGWPSSWTNHAPYTSKLSSRLPSTDHPSTDGQRYLEQSFNVVSQLLKGQGYNQATINDNPNYKDHVFGYSAFDFLNGKRAGPVATYLQTALARPNFTFKTNVMVSNVVRNGSQILGVQTNDPTLGPNGFIPVTPKGRVILSAGAFGTSRILFQSGIGPTDMIQTVQSNPTAAAALPPQNQWINLPVGMNAQDNPSINLVFTHPSIDAYENWADVWSNPRPADAAQYLANQSGVFAGASPKLNFWRAYSGSDGFTRYAQGTVRPGAASVNSSLPYNASQIFTITVYLSTGIQSRGRIGIDAALRGTVLTPPWLVNPVDKTVLLQALHDVVSNIGSIPGLTMITPDVTQTLEEYVDAYDPATMNSNHWVSSTTIGSSPQSAVVDSNVKVFGTNNLFIVDAGIIPHLPTGNPQGTLMSAAEQAAAKILALAGGP
- Isoelectric point: 4.2
- Optimal pH: 5.0
- Optimal temperature: 50 °C
- Isoelectric point (listed as cellobiose dehydrogenase derived from Phanerochaete chrysosporium): about 4.2
